According to the supplement of paper PMC9112550, “Optimization of the antimicrobial peptide Bac7 by deep mutational scanning” (BMC Biology, 2022):

test system: Escherichia coli TOP10; assay: shrunken log2 fold change of peptide-encoding DNA abundance (4.5 h post-induction vs induction); higher = less antimicrobial activity (less host growth inhibition); conditions: time post-induction: 4.5 h; library: site-saturation at positions 5, 18, 19, 20
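Also: peptides expressed intracellularly from a pBAD plasmid library in pooled LB shake-flask culture, induced with 0.3% L-arabinose, DNA abundance read by NGS, three biological replicates, DESeq2 with apeglm shrinkage.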

Row | Sequence | shrunken log2 fold change
1 | RRIRLRPPRLPRPRPRPLFIPRP | -0.539
2 | RRIRVRPPRLPRPRPRPWKDPRP | -0.00963
3 | RRIRYRPPRLPRPRPRPAWQPRP | 0.0499
4 | RRIRFRPPRLPRPRPRPWIWPRP | 0.0425
5 | RRIRKRPPRLPRPRPRPADGPRP | 0.223
6 | RRIRLRPPRLPRPRPRPSYHPRP | -0.686
7 | RRIRARPPRLPRPRPRPTWMPRP | 0.221
8 | RRIRKRPPRLPRPRPRPKTKPRP | 0.411
9 | RRIRLRPPRLPRPRPRPLSEPRP | 0.0386
10 | RRIRNRPPRLPRPRPRPSVRPRP | -0.00578
11 | RRIRVRPPRLPRPRPRPHHKPRP | -0.477
12 | RRIRCRPPRLPRPRPRPEFQPRP | 0.0126
13 | RRIRQRPPRLPRPRPRPDWKPRP | 0.0112
14 | RRIRYRPPRLPRPRPRPYELPRP | -0.0164
15 | RRIRLRPPRLPRPRPRPRPGPRP | 0.687
16 | RRIRQRPPRLPRPRPRPMKPPRP | -0.0268
17 | RRIRTRPPRLPRPRPRPDIQPRP | -0.531
18 | RRIRARPPRLPRPRPRPEATPRP | 1.65
19 | RRIRQRPPRLPRPRPRPIKCPRP | -0.00607
20 | RRIRNRPPRLPRPRPRPMCWPRP | 0.327
21 | RRIRTRPPRLPRPRPRPGHMPRP | -0.233
22 | RRIRWRPPRLPRPRPRPSNLPRP | -0.0676
23 | RRIRPRPPRLPRPRPRPKVVPRP | 0.454
24 | RRIRLRPPRLPRPRPRPDANPRP | 0.0586
25 | RRIRGRPPRLPRPRPRPEGYPRP | 0.118

Row | Sequence | shrunken log2 fold change
26 | RRIRGRPPRLPRPRPRPIAGPRP | 0.701
27 | RRIRQRPPRLPRPRPRPDGIPRP | 0.087
28 | RRIRARPPRLPRPRPRPAATPRP | 0.914
29 | RRIRARPPRLPRPRPRPMWFPRP | 0.0716
30 | RRIRSRPPRLPRPRPRPKPTPRP | 0.174
31 | RRIRTRPPRLPRPRPRPNQVPRP | 0.00376
32 | RRIRTRPPRLPRPRPRPYWRPRP | -0.174
33 | RRIRMRPPRLPRPRPRPHIVPRP | 0.0532
34 | RRIRPRPPRLPRPRPRPLCEPRP | 0.0379
35 | RRIRIRPPRLPRPRPRPHETPRP | 0.0188
36 | RRIRIRPPRLPRPRPRPNVIPRP | -0.82
37 | RRIRCRPPRLPRPRPRPRTHPRP | -0.168
38 | RRIRNRPPRLPRPRPRPWKFPRP | -0.0447
39 | RRIRQRPPRLPRPRPRPCPAPRP | -0.00924
40 | RRIRGRPPRLPRPRPRPSEIPRP | -0.193
41 | RRIRNRPPRLPRPRPRPFRDPRP | 0.0452
42 | RRIRSRPPRLPRPRPRPRQVPRP | 0.109
43 | RRIRTRPPRLPRPRPRPICNPRP | -0.00195
44 | RRIRSRPPRLPRPRPRPYGDPRP | -0.115
45 | RRIRQRPPRLPRPRPRPALAPRP | 0.73
46 | RRIRGRPPRLPRPRPRPKYSPRP | -0.156
47 | RRIRLRPPRLPRPRPRPWGLPRP | 0.171
48 | RRIRSRPPRLPRPRPRPLRDPRP | 0.439
49 | RRIRPRPPRLPRPRPRPDYIPRP | -1.2
50 | RRIRERPPRLPRPRPRPIMTPRP | -0.714

Row | Sequence | shrunken log2 fold change
51 | RRIRFRPPRLPRPRPRPELNPRP | 0.164
52 | RRIRHRPPRLPRPRPRPNLQPRP | -0.0526
53 | RRIRNRPPRLPRPRPRPHIWPRP | -0.0306
54 | RRIRTRPPRLPRPRPRPSEHPRP | -0.383
55 | RRIRMRPPRLPRPRPRPATVPRP | 0.323
56 | RRIRHRPPRLPRPRPRPMWSPRP | -0.209
57 | RRIRDRPPRLPRPRPRPKWHPRP | 0.179
58 | RRIRVRPPRLPRPRPRPKITPRP | -0.524
59 | RRIRYRPPRLPRPRPRPENKPRP | -0.725
60 | RRIRWRPPRLPRPRPRPCKVPRP | -0.0816
61 | RRIRARPPRLPRPRPRPTVGPRP | 0.794
62 | RRIRQRPPRLPRPRPRPRHYPRP | -0.191
63 | RRIRTRPPRLPRPRPRPHHRPRP | -0.655
64 | RRIRFRPPRLPRPRPRPFFKPRP | -0.251
65 | RRIRTRPPRLPRPRPRPHYKPRP | -0.531
66 | RRIRWRPPRLPRPRPRPSVAPRP | 0.491
67 | RRIRIRPPRLPRPRPRPSFRPRP | -0.671
68 | RRIRHRPPRLPRPRPRPWIIPRP | 0.00956
69 | RRIRDRPPRLPRPRPRPQPIPRP | 0.152
70 | RRIRKRPPRLPRPRPRPVNYPRP | -0.0716
71 | RRIRARPPRLPRPRPRPFGQPRP | -0.0155
72 | RRIRWRPPRLPRPRPRPPKCPRP | 0.156
73 | RRIRGRPPRLPRPRPRPRWHPRP | 0.522
74 | RRIRLRPPRLPRPRPRPGVPPRP | 0.0447
75 | RRIRCRPPRLPRPRPRPEFCPRP | 0.0369
